Measurements taken from the supplement of paper PMC9112550, “Optimization of the antimicrobial peptide Bac7 by deep mutational scanning” (BMC Biology, 2022).

These sequences were tested on Escherichia coli TOP10 (assay: shrunken log2 fold change of peptide-encoding DNA abundance (4.5 h post-induction vs induction); higher = less antimicrobial activity (less host growth inhibition)). Settings: time post-induction: 4.5 h; library: site-saturation at positions 5, 18, 19, 20.
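Further: peptides expressed intracellularly from a pBAD plasmid library in pooled LB shake-flask culture, induced with 0.3% L-arabinose, DNA abundance read by NGS, three biological replicates, DESeq2 with apeglm shrinkage.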

Row | Sequence | shrunken log2 fold change
1 | RRIRDRPPRLPRPRPRPYAVPRP | -0.165
2 | RRIRDRPPRLPRPRPRPYCLPRP | -0.0759
3 | RRIRDRPPRLPRPRPRPYDKPRP | -0.149
4 | RRIRDRPPRLPRPRPRPYGSPRP | -0.0409
5 | RRIRDRPPRLPRPRPRPYIDPRP | -0.0251
6 | RRIRDRPPRLPRPRPRPYIVPRP | 0.0363
7 | RRIRDRPPRLPRPRPRPYNSPRP | -0.237
8 | RRIRDRPPRLPRPRPRPYNWPRP | -0.281
9 | RRIRDRPPRLPRPRPRPYPIPRP | 0.0369
10 | RRIRDRPPRLPRPRPRPYPPPRP | -0.426
11 | RRIRDRPPRLPRPRPRPYQRPRP | 0.058
12 | RRIRDRPPRLPRPRPRPYRHPRP | -0.0137
13 | RRIRDRPPRLPRPRPRPYRNPRP | -0.00595
14 | RRIRDRPPRLPRPRPRPYRWPRP | -0.146
15 | RRIRDRPPRLPRPRPRPYSLPRP | -0.017
16 | RRIRDRPPRLPRPRPRPYSTPRP | -0.0663
17 | RRIRDRPPRLPRPRPRPYTTPRP | -0.556
18 | RRIRDRPPRLPRPRPRPYWAPRP | -0.0312
19 | RRIRDRPPRLPRPRPRPYWCPRP | 0.0158
20 | RRIRDRPPRLPRPRPRPYWEPRP | -0.0419
21 | RRIRDRPPRLPRPRPRPYWKPRP | -0.00829
22 | RRIRDRPPRLPRPRPRPYWRPRP | -0.0818
23 | RRIRERPPRLPRPRPRPAACPRP | 0.0165
24 | RRIRERPPRLPRPRPRPAADPRP | 0.127
25 | RRIRERPPRLPRPRPRPADVPRP | 0.00489

Row | Sequence | shrunken log2 fold change
26 | RRIRERPPRLPRPRPRPADWPRP | 0.349
27 | RRIRERPPRLPRPRPRPAEAPRP | -0.0209
28 | RRIRERPPRLPRPRPRPAEHPRP | -0.0237
29 | RRIRERPPRLPRPRPRPAEQPRP | -0.163
30 | RRIRERPPRLPRPRPRPAFFPRP | 0.00883
31 | RRIRERPPRLPRPRPRPAFKPRP | 0.106
32 | RRIRERPPRLPRPRPRPAGDPRP | 3.19
33 | RRIRERPPRLPRPRPRPAGHPRP | 0.0849
34 | RRIRERPPRLPRPRPRPAGRPRP | 0.0837
35 | RRIRERPPRLPRPRPRPAIKPRP | -0.656
36 | RRIRERPPRLPRPRPRPAIQPRP | -0.337
37 | RRIRERPPRLPRPRPRPAKEPRP | 0.0889
38 | RRIRERPPRLPRPRPRPALCPRP | 0.0446
39 | RRIRERPPRLPRPRPRPALMPRP | 0.129
40 | RRIRERPPRLPRPRPRPAPNPRP | 0.258
41 | RRIRERPPRLPRPRPRPAQFPRP | 0.383
42 | RRIRERPPRLPRPRPRPARFPRP | 0.168
43 | RRIRERPPRLPRPRPRPASVPRP | -0.0789
44 | RRIRERPPRLPRPRPRPATFPRP | -0.177
45 | RRIRERPPRLPRPRPRPATTPRP | -0.0752
46 | RRIRERPPRLPRPRPRPAVRPRP | 0.00239
47 | RRIRERPPRLPRPRPRPAWAPRP | 0.0704
48 | RRIRERPPRLPRPRPRPAWEPRP | 0.506
49 | RRIRERPPRLPRPRPRPCFYPRP | -0.43
50 | RRIRERPPRLPRPRPRPCGMPRP | -0.398

Row | Sequence | shrunken log2 fold change
51 | RRIRERPPRLPRPRPRPCHVPRP | -0.0775
52 | RRIRERPPRLPRPRPRPCIDPRP | -0.00146
53 | RRIRERPPRLPRPRPRPCLVPRP | 0.0202
54 | RRIRERPPRLPRPRPRPCPGPRP | -0.451
55 | RRIRERPPRLPRPRPRPCPWPRP | -0.278
56 | RRIRERPPRLPRPRPRPCQHPRP | -0.0915
57 | RRIRERPPRLPRPRPRPCRSPRP | -0.0928
58 | RRIRERPPRLPRPRPRPCSMPRP | -0.0884
59 | RRIRERPPRLPRPRPRPCTKPRP | -0.63
60 | RRIRERPPRLPRPRPRPCWGPRP | 0.0218
61 | RRIRERPPRLPRPRPRPCYWPRP | -0.361
62 | RRIRERPPRLPRPRPRPCYYPRP | -0.312
63 | RRIRERPPRLPRPRPRPDACPRP | -0.0198
64 | RRIRERPPRLPRPRPRPDADPRP | 0.0155
65 | RRIRERPPRLPRPRPRPDAKPRP | 0.0113
66 | RRIRERPPRLPRPRPRPDALPRP | -0.0722
67 | RRIRERPPRLPRPRPRPDDQPRP | -0.252
68 | RRIRERPPRLPRPRPRPDEIPRP | -0.111
69 | RRIRERPPRLPRPRPRPDENPRP | -0.0287
70 | RRIRERPPRLPRPRPRPDERPRP | 0.109
71 | RRIRERPPRLPRPRPRPDFAPRP | 0.159
72 | RRIRERPPRLPRPRPRPDFQPRP | -0.37
73 | RRIRERPPRLPRPRPRPDGKPRP | 0.00926
74 | RRIRERPPRLPRPRPRPDGPPRP | 0.115
75 | RRIRERPPRLPRPRPRPDHSPRP | -0.184

Row | Sequence | shrunken log2 fold change
76 | RRIRERPPRLPRPRPRPDINPRP | -0.239
77 | RRIRERPPRLPRPRPRPDKDPRP | -0.433
78 | RRIRERPPRLPRPRPRPDLCPRP | -0.00931
79 | RRIRERPPRLPRPRPRPDLRPRP | -0.076
80 | RRIRERPPRLPRPRPRPDMKPRP | 0.0475
81 | RRIRERPPRLPRPRPRPDMMPRP | 0.0556
82 | RRIRERPPRLPRPRPRPDMSPRP | -0.064
83 | RRIRERPPRLPRPRPRPDNAPRP | -0.245
84 | RRIRERPPRLPRPRPRPDNSPRP | -0.981
85 | RRIRERPPRLPRPRPRPDPDPRP | -0.0294
86 | RRIRERPPRLPRPRPRPDQVPRP | -0.148
87 | RRIRERPPRLPRPRPRPDREPRP | -0.0729
88 | RRIRERPPRLPRPRPRPDRLPRP | -0.147
89 | RRIRERPPRLPRPRPRPDSPPRP | -0.184
90 | RRIRERPPRLPRPRPRPDTIPRP | -0.06
91 | RRIRERPPRLPRPRPRPDTPPRP | -0.562
92 | RRIRERPPRLPRPRPRPDVWPRP | 0.0561
93 | RRIRERPPRLPRPRPRPDYDPRP | -0.021
94 | RRIRERPPRLPRPRPRPDYTPRP | -1.01
95 | RRIRERPPRLPRPRPRPDYVPRP | -0.00136
96 | RRIRERPPRLPRPRPRPDYWPRP | -0.276
97 | RRIRERPPRLPRPRPRPEARPRP | 0.164
98 | RRIRERPPRLPRPRPRPECTPRP | 0.187
99 | RRIRERPPRLPRPRPRPEECPRP | -0.000921
100 | RRIRERPPRLPRPRPRPEEMPRP | 0.0169

Row | Sequence | shrunken log2 fold change
101 | RRIRERPPRLPRPRPRPEFCPRP | 0.112
102 | RRIRERPPRLPRPRPRPEFHPRP | -0.207
103 | RRIRERPPRLPRPRPRPEGLPRP | -0.00749
104 | RRIRERPPRLPRPRPRPEHTPRP | -0.154
105 | RRIRERPPRLPRPRPRPEKNPRP | -0.126
106 | RRIRERPPRLPRPRPRPEKPPRP | 3.84
107 | RRIRERPPRLPRPRPRPELYPRP | -0.0287
108 | RRIRERPPRLPRPRPRPEMEPRP | -0.0231
109 | RRIRERPPRLPRPRPRPEPMPRP | -0.0016
110 | RRIRERPPRLPRPRPRPEQDPRP | -0.0751
111 | RRIRERPPRLPRPRPRPESDPRP | -0.0699
112 | RRIRERPPRLPRPRPRPETWPRP | -0.0594
113 | RRIRERPPRLPRPRPRPEWFPRP | 0.0631
114 | RRIRERPPRLPRPRPRPEYHPRP | -0.242
115 | RRIRERPPRLPRPRPRPEYYPRP | -0.00813
116 | RRIRERPPRLPRPRPRPFAKPRP | -0.386
117 | RRIRERPPRLPRPRPRPFCKPRP | 0.0112
118 | RRIRERPPRLPRPRPRPFEPPRP | -0.195
119 | RRIRERPPRLPRPRPRPFFDPRP | 0.0568
120 | RRIRERPPRLPRPRPRPFFGPRP | -0.217
121 | RRIRERPPRLPRPRPRPFGHPRP | -0.224
122 | RRIRERPPRLPRPRPRPFHSPRP | -0.256
123 | RRIRERPPRLPRPRPRPFKDPRP | -0.0062
124 | RRIRERPPRLPRPRPRPFKFPRP | -0.0774
125 | RRIRERPPRLPRPRPRPFKIPRP | -0.0307

Row | Sequence | shrunken log2 fold change
126 | RRIRERPPRLPRPRPRPFKLPRP | -0.42
127 | RRIRERPPRLPRPRPRPFLWPRP | 0.155
128 | RRIRERPPRLPRPRPRPFNGPRP | -0.145
129 | RRIRERPPRLPRPRPRPFPPPRP | -0.38
130 | RRIRERPPRLPRPRPRPFRWPRP | 0.0329
131 | RRIRERPPRLPRPRPRPFSTPRP | -0.0931
132 | RRIRERPPRLPRPRPRPFWCPRP | -0.014
133 | RRIRERPPRLPRPRPRPFWTPRP | -0.24
134 | RRIRERPPRLPRPRPRPFYNPRP | -0.306
135 | RRIRERPPRLPRPRPRPFYQPRP | -0.0388
136 | RRIRERPPRLPRPRPRPGAQPRP | -0.23
137 | RRIRERPPRLPRPRPRPGDDPRP | -0.152
138 | RRIRERPPRLPRPRPRPGEGPRP | 0.028
139 | RRIRERPPRLPRPRPRPGEIPRP | 0.0895
140 | RRIRERPPRLPRPRPRPGELPRP | -0.26
141 | RRIRERPPRLPRPRPRPGFHPRP | -0.277
142 | RRIRERPPRLPRPRPRPGFKPRP | -0.324
143 | RRIRERPPRLPRPRPRPGFLPRP | -0.0604
144 | RRIRERPPRLPRPRPRPGFTPRP | 0.00165
145 | RRIRERPPRLPRPRPRPGIEPRP | 0.00615
146 | RRIRERPPRLPRPRPRPGKNPRP | -0.212
147 | RRIRERPPRLPRPRPRPGLLPRP | -0.0986
148 | RRIRERPPRLPRPRPRPGLTPRP | -0.174
149 | RRIRERPPRLPRPRPRPGMTPRP | -0.324
150 | RRIRERPPRLPRPRPRPGNDPRP | -0.0081
